The record followed here is a protein production outcome set (Wang et al. 2014).

The nature of this data set: label from the status in PepcDB records.
Take “MSIKIGLLGFGTVASGIPFLLKENGEKVFAASRDQLEIAKVLVKDDEEKDRLIAAGNDYNFVTNVDEILNDEEIQIVVELMGRIEPARTFITKALEAGKNVVSANKDLIATHGKELIALAQDKGVAFYYEAAVAGGIPILRTLANSLTSDKVTRILGVLNGTSNFMMTKMVDEGWSYEDALKTAQELGYAESDPTNDVEGYDAAYKAVILSQFGFGATIDFDDVSHKGITNISTDDVAVAQELGYVIKLVGDVREVESGISAEVSPTFLPKNHPLASVNDVMNAVFVESIGIGESMYYGPGAGQKPTATSVLADIIRIARRLSDGNVGKPFNEFRRDLPLANPADVKSNYYFALDTPDEKGKILHLSEIFNSEDISFEQVLQQKANGTTARIVVITHAMSKTQLKAVTEKLEAAEDFTVVNTLKVLSNLEHHHHHH”: the protein production entry is reported as “not failed”.

On to “MLSTGLDELVYRSNLIGSDRAVCNWGGGNTSMKTVEKDFRGREIAVMWVKGSGSDLATMGAKNFTGLNLEDIRPLIEREEMSDEEMVEYLGHCMIDRNHPRPSIETLLHAFLPFKHVDHTHPDAIISICCADNGKEIAKNLFGDRFVWVPYVRPGFSLSKLIAEGVQKNPHAELVLMEKHGLVVWGETAKESYDRTISVINEAEAYIRSRINESVIFGGGKLEHHHHHH”, for which the protein production result was “failed”.

For the sequence “MSQVHRILNCRGTRIHAVADSPPDQQGPLVVLLHGFPESWYSWRHQIPALAGAGYRVVAIDQRGYGRSSKYRVQKAYRIKELVGDVVGVLDSYGAEQAFVVGHDWGAPVAWTFAWLHPDRCAGVVGISVPFAGRGVIGLPGSPFGERRPSDYHLELAGPGRVWYQDYFAVQDGIITEIEEDLRGWLLGLTYTVSGEGMMAATKAAVDAGVDLESMDPIDVIRAGPLCMAEGARLKDAFVYPETMPAWFTEADLDFYTGEFERSGFGGPLSFYHNIDNDWHDLADQQGKPLTPPALFIGGQYDVGTIWGAQAIERAHEVMPNYRGTHMIADVGHWIQQEAPEETNRLLLDFLGGLRP”, the protein production result is “not failed”.

“TVDWASMKWARPYLNTNSLGANPKQPGDVAKVGDLVRLLRQDDGSLKFSQIPVAQSALVSLDPQNGAIRALVGGFAFEQSNYNRAMQAKRQPGSSFKPFIYSAALDNGYTASSLVNDAPIVFVDEYLDKVWRPKNDTNTFLGPIRLREALYKSRNLVSIRLLQALGVDSTIDYITRFGFAKQDLPRNLSLALGTATLTPMEIATGWATFANGGYKVSPYLIQTIENRDGQTLFVANPPSVPVNDVNTAPNTSTFAVHDSPSVVASPPGSPAQPQAPAVAERIVDGRTTYILNSMLQDVIKRGTGRRALSMNRPDIAGKTGTTNDSKDAWFSGYNADYVTTVWSGFDQPESLGRHEFGGTVSLPIWMDYMSAALKDKPPHQQ”: the protein production result was “failed”.

On to “MEENMEKNKIKKIALIFNILQVIALAVFEVVLFRLVSYKNKLILDYVPAKYFIILEVVLVAITIIPFLIRKGKKTSIISMVISILMAIVLFATSILGVVYDKDIKNVLNKADQTIDDVVENSKLSTEEYGVYILKSDEAEELKDIENYNLGYNLSYAKDETDSVLKNVLAKANNKLIANEYDDLLKMADELLNTEKTAFIFNQAMLDLIENAGDDTNDGKNNGIYKNFTNKIKCIYVVNVKTAVKEYGGDKNVTKECFNVYISGIDTEGDVTAKSRSDVNIIMSINPVTHQVLLLSTPRDYYVPLSISNGVKDKLTHAGNYGINVSMDTLEMLYDIKLDYFIRLNFTGFVDIIDALGGIDVVSDYSFSTHGYSYSEGLNSNLSGIQALWFARERHAFAEGDKQRGRDQMKVIEAVIKKAQSSALLNNYDEIFANISKSFQTNMPKKDIKALVKYQLNETPNWKVVSTSVTGTGRSDVTYSVPNSRAYVMDPDENSVNEAKKLLQKIQNNKKIKVKTTTE”, for which the protein production entry is listed as “failed”.

For “MLTENYNKQAIAQAFGRAAGCYDRFAELQRTSGERLLALMPAHSGLQVLDAGCGTGHFSRYWRQAGRNVTALDLSAEMLAYAREQHAADRYLEGDIENLPLADSCVDICYSNLAVQWCDSLPRALGELYRITRPGGVIAFATLADGSLSELSQAWQRLDGTQRTNRFLPHSVIDAACQPYRHHLLQEREVCLFPDVLALMKSLKGIGATWLHEGRTPGLLSRARLAALSACYPQEQGGYPLSYQLVYGVIYRDLEHHHHHH”, the protein production result is listed as “failed”.

Regarding “MEDLSDVFDIYAICACCKVAPTSEGTKNEPFSPRTFRGLGNKGTLPWKCNSVDMKYFRSVTTYVDESKYEKLKWKRERYLRMEASQGGGDNTSGGDNNADKLQNVVVMGRSNWESIPKQYKPLPNRINVVLSKTLTKEDVKEKVFIIDSIDDLLLLLKKLKYYKCFIIGGAQVYRECLSRNLIKQIYFTRINGAYPCDVFFPEFDESQFRVTSVSEVYNSKGTTLDFLVYSK”, the protein production entry is “not failed”.

Take “MTEVNLNIYSPRWGRHETYIVELHKDYMEISMGAVTIKATYSENQDPEWSEETLQDIMNNDSVYPPEITQNLFQHAWLEWRKGALDNDEVTRELELVAQWVNKVTEAKPNSDFWRKYF”: the protein production result is given as “not failed”.

Turning to “ECSQDCATCSYRLVRPADINFLACVMECEGKLPSLKIWETCKELLQLSKPELPQDGTSTLRENSKPEESHLLAKRYGGFMKRYGGFMKKMDELYPMEPEE”, the protein production entry is recorded as “failed”.

On to “MELRTPGTKWSPQGIGSLRRVVWDYSTPEISLFSEEGLKGEQVKLTEALKNSQGLEKPLQVASATVSAGLWLLYPKPLFEDTPYILEPGEYPTSEAWGTSDPSVGSLKPMRLGCPSVEKPGEPRAVVYEAPGFQGRSWEVSRDIYNLQQPEDSQSPHLASVGSLRVLGGCWVGYEKEGFRGHQYLLEEGEYPDWSHWGGYDELLTSLRVIRTDFGDPAVVLFEAMDFEGHGVEVSKALPDVELVQHGPSTQAIHVLSGVWVAYQEVGFSGEQYVLEKGVYRNCEDWGAGNSTLASLQPVLQVGEHDLHFVSKIQLFSRPDFLGDHFSFEDDQAALPASFRPQSCRVHGGSWILFDETNFEGDQHILSEGEFPTLTAMGCLASTVLGSLQKVSLHFSEPSIFLYGLECFEGKEIELSREVRSLQAEGFNNHVLSVRIKGGIWVLCEHSDFRGRQWLVGSCEITNWLTYSGTQRVGSLYPIKQRRVYFRLWNAALGGFLAVPDHVEDMKAGRVVVADPQAGGSCIWYYEDGLLKNQMAPTMSLQVIGPPSPGSKVVLWAESRLPRQTWSISESGHICSQMFEGQILDVKGGRGYDRDHVVLWEPDEDRASQIWTIHVL”, for which the protein production result is recorded as “failed”.

For “MTDAPATPYAARTPVHEQHLDGFGTVRVLPLDPAADAAVVHGWVGEERAAFWGMNDLTRDQVAAVYAHMDTLDTHHAFLVVKDGEPAALLQTYDPAADRVSECYAAEPGDIGVHLLLAPAGAEGTRPGWTAALSGALMAYVLLGLDRTRIVVDPDVANEKAIARFLKQGFTAGPAVVLPEVDLPDVYLPEKKAQLAFLRREVAFGA”, the protein production result is “failed”.

Regarding “MGKKIITISREYGSGGRQVGLTVAKKLGMEFYDKELIDAAAKEIGFPTEMIADREQRLTNSLLYNFAMGTLYGIAYPREPKVSELPLTEQIYQAQKKAIEEAAKRGSCIFVGRCADYILKSRPDVLRVFIYADRDIRKRRAIEEYGEIEEYIDEFMYQTDKRRRIHYENYTNQKWGSRENYDLMLNSGDLGLDKCVELLCEAVK”, the protein production entry is on record as “not failed”.

Consider “MTARNILSYSYEEYVEKITAFHGYPAPGVLIGGFMVDLAVKNLPEGILYDAICETRTCLPDAVQLLTPCTFGNGWLTVLPMGLFAVSLYDKFTGEGVRVFLDVEKMGPWQEIRNWFLKLKTKKEQDSERLFKEIREAGPDILELRNVKLKPGFLEKKHKGKIVLCPQCREAYPAQDGELCLSCQGGSPYL”, for which the protein production result is listed as “not failed”.

Regarding “MWFQNYLLAKFMMNRKGLMANYRVWRRRWFYPLISVVVAVSLCLGTPLVGRAIDLRPLLLQGVQVLQLSNISDRQEVDLGNQMNQQLRSSEVKISRNAEITRYVDQIGQRLVANSDRPNLPFTFQVVENDAVNAFATLGGFVYIHTGLLKTADNEAELASVIAHEIGHIGGRHLVKQMRQRALASGLASATGLDRNTAVGLGVELALNRPRSRQDEFDADTRGLRTLTRAGYAPSAMVSFMQKLTKGGGSVPAFLSTHPATGDRITSLRRAINSQGSNGRDGLDNAAYRARIRSIL”, the protein production result was “failed”.

As for “MTPPASSSPCSSSDKRNRAVPSAKALMVWRAGPDGRPLDPSQFPQDPPARRDGDGGGAEAWLNLVHPEEREAVLLLWRRALREGEEFEARYRLHRGLSGYRWALGQGRPLRGDDGEVREWIGTVVDIHDHMEAERTIALSEERLRLALDSADLGVWECTIATNQWWFSEAALRILGCPPDAETSIETVMGAIHSDDLDGLRARWHAARTGRARDRMEGEFRIQRGGGRLGWIACSARLVADDGKAVTRMLGTLRDITKTRLQREKLYHLAHFDPLTGLPNRHEMITRTQATLASGGAAGGAGAILLLDLDGFKEANDTLGQATGDALLKRIAHRLVSSLPADSLIGRVGGDEFLVVVPGVAEQWTATRIADGLYDVLTVPFVIGDRRIPLSGRIGIALAPRDGTSAQDLMTHAELALQETKTISGCVTRFFSPRLHDEARERQDMGLELRRATDNGEFELFYQPQIRLSDRAVVGAEALLRWRHPTRGVMPPAAFLHVLKRGPLAGEVGEWVVAKACADAAGLLNAGSRIRMAVNLFSAQFKAGTVDATVRRSLLESGLPAELLELEITEKVTLDRDEGILTCLKGLRDLGCGVAFDDYGTGYASLSMLKRYPLTRLKIDRAFVQHLAESPKDGAIVRAVLSLGNTFGLSVTAEGIEEEEQEKLLLGQGCDEGQGYFFGRPMPLADFIQFLARVKKNPGEFPTPA”, the protein production entry is listed as “failed”.

As for “QGHWFAIHSGTLGIMVNVDALGGLPVPQSWADLLKPEYKGMVGYLDPSSAFVGYVSAVAINQAMGGSLDNFGPAIDYFQKLAKNSPIVPKQTAYARALSGELPILVDYDFNAYRARYKDKANVAFVIPKEGTIGVPYVMSMVAKAPHRANAEKVLDFVLSDAGQALWAKAYLRPVR”, the protein production entry is “failed”.

Take “MAEVRQNPVVIVPGVLFWDSLYEVMREALSTWIPAEKIAIVPVNLLDWLGFPPSPERSTNRVMAALDRTVRAMASRFPGEPVTIVAHSGGGTVAMIYLLERPFQGDVYAVNGLVGRLVTLGTPFHTHEHFAKIKTDFIFKHLGPEFFQKYQVVSVVSNQYKGSLDGGMIEKMCYMFYRGVTDDGNLAGDGVVPARSCFLDGAKNVTILECEHLPAPHTKWYGTKDGVEQWIEWL”: the protein production result is on record as “failed”.

Regarding “MPMPTMSQAPHSVRPLNRGHWIATYFIGVAGLSLALMLVLNLILLTTSQNPGKALLDSLSFSVAVLMVSLVLITLIAALPCILFFWLAQRFTWRHLWIYLVSGALAAQFAIPVMTKLLPELFNLPHGVSAALHYLQLASMFGGCGVFMGGLFWWRSGRHLR”, the protein production result was “failed”.

Regarding “MECRPLCIDDLELVCRHREAMFREAGRDALTLAAMQDPFRDWLLPRLADGSYFGWVMEEGGAPLAGIGLMVIEWPPHPSHPLQDKRGYILNLYVDPSHRERGIGQALMNRAEAEFAERGIAFAVLHATEMGQPLYARMGWSPTTEMSKPIAG”, the protein production entry is reported as “not failed”.

“MEETLATPDATRRSLSPSCSATVKSRAAGFERRTKRRLSETNASVREDREEAEEEEDEVKEKIEALQRIIPGGAALGVDALFEETAGYILSLQCQIKTIKVLTSFLQRIDQEDMKFGG”: the protein production entry is on record as “failed”.

Turning to “MAVEEFNQNLNEIMKFKECNITVDTCVVIDGRITELISDGTIEKCTIIVPEAVISELEAQANKGREIGYFGIEELKKLVKVAKENEMVLEYYGERPSTGEVSLAKAGEIDAMIRKVAKDTNSILFTSDRIQYNLAIAQNINAHFLKVHEEKVDLKLV”, the protein production result was “failed”.
